Response (RU) data for one substance are collected here from PMC10526015.

Assay in all cases: SPR; Biacore 8K or 8K+, 25 °C, HBS-EP+ pH 7.4; IgG captured (400–425 RU) by goat anti-human Fc on CM5; human FcγRI 100 nM injected; response units at one concentration
Background: Surface plasmon resonance follows binding to a sensor surface in real time, without labels.

Test [1] concerns the target ADI-26906 IgG1 LALA-Y296F (L234A/L235A/Y296F) (human).
Test [2] concerns the target ADI-26906 IgG1 LALE-L309A (L234A/L235E/L309A) (human).
Test [3] deals with ADI-26906 IgG1 LALA-K322A (L234A/L235A/K322A) (human).
The target of test [4] is ADI-26906 IgG1 LALE-A330S/P331S (L234A/L235E/A330S/P331S) (human).
The target of test [5] is ADI-26906 IgG1 LALA-A330S (L234A/L235A/A330S) (human).
Test [6] concerns the target ADI-26906 IgG1 LALE-D270A (L234A/L235E/D270A) (human).
Test [7] deals with ADI-26906 IgG1 LALE-L328A (L234A/L235E/L328A) (human).
Test [8] has as its target ADI-26906 IgG1 LALA-L309A (L234A/L235A/L309A) (human).
Test [9] addresses ADI-26906 IgG1 LALA-A327G (L234A/L235A/A327G) (human).
Test [10] has as its target ADI-26906 IgG1 LALA-A330S/P331S (L234A/L235A/A330S/P331S) (human).
Test [11] concerns the target ADI-26906 IgG1 LALA-P331S (L234A/L235A/P331S) (human).
In test [12] the target is ADI-26906 IgG1 LALA-L328A (L234A/L235A/L328A) (human).
Test [13] addresses ADI-26906 IgG1 LALA-H268Q (L234A/L235A/H268Q) (human).
Test [14] has as its target ADI-26906 IgG1 LALE-K322A (L234A/L235E/K322A) (human).
In test [15] the target is ADI-26906 IgG1 LALE-H268Q (L234A/L235E/H268Q) (human).
The target in test [16] is ADI-26906 IgG1 LALA-D270A (L234A/L235A/D270A) (human).
Test [17] concerns the target ADI-26906 IgG1 L234A/L235A (human).
The target in test [18] is ADI-26906 IgG1 LALA-L309V (L234A/L235A/L309V) (human).
The target of test [19] is ADI-26906 IgG1 LALE-A330S (L234A/L235E/A330S) (human).
In test [20] the target is ADI-26906 IgG1 LALE-L309V (L234A/L235E/L309V) (human).
For test [21], the target named is ADI-26906 IgG1 LALE-P331S (L234A/L235E/P331S) (human).
Test [22] addresses ADI-26906 IgG1 L234A/L235E (human).

Chain of ADI-26906 IgG1 LALA-A330S/P331S (L234A/L235A/A330S/P331S) (human) (heavy, as listed by the source, chain 1 of 2): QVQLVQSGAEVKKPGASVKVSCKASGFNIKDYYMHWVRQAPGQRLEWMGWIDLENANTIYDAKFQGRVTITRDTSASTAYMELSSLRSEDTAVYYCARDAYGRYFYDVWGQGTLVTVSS
Chain of ADI-26906 IgG1 LALA-A330S/P331S (L234A/L235A/A330S/P331S) (human) (light, as listed by the source, chain 2 of 2): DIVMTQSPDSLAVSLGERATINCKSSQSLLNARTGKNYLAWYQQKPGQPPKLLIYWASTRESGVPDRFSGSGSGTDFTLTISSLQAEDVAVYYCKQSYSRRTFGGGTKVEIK
Chain of ADI-26906 IgG1 LALA-L309V (L234A/L235A/L309V) (human) (heavy, as listed by the source, chain 1 of 2): as the sequence (heavy, as listed by the source, chain 1 of 2) above
Chain of ADI-26906 IgG1 LALA-L309V (L234A/L235A/L309V) (human) (light, as listed by the source, chain 2 of 2): as the sequence (light, as listed by the source, chain 2 of 2) above
Chain of ADI-26906 IgG1 L234A/L235A (human) (heavy, as listed by the source, chain 1 of 2): as the sequence (heavy, as listed by the source, chain 1 of 2) above
Chain of ADI-26906 IgG1 L234A/L235A (human) (light, as listed by the source, chain 2 of 2): as the sequence (light, as listed by the source, chain 2 of 2) above
Chain of ADI-26906 IgG1 LALE-A330S/P331S (L234A/L235E/A330S/P331S) (human) (heavy, as listed by the source, chain 1 of 2): as the sequence (heavy, as listed by the source, chain 1 of 2) above
Chain of ADI-26906 IgG1 LALE-A330S/P331S (L234A/L235E/A330S/P331S) (human) (light, as listed by the source, chain 2 of 2): as the sequence (light, as listed by the source, chain 2 of 2) above
Chain of ADI-26906 IgG1 LALA-L328A (L234A/L235A/L328A) (human) (heavy, as listed by the source, chain 1 of 2): as the sequence (heavy, as listed by the source, chain 1 of 2) above
Chain of ADI-26906 IgG1 LALA-L328A (L234A/L235A/L328A) (human) (light, as listed by the source, chain 2 of 2): as the sequence (light, as listed by the source, chain 2 of 2) above
Chain of ADI-26906 IgG1 LALE-L328A (L234A/L235E/L328A) (human) (heavy, as listed by the source, chain 1 of 2): as the sequence (heavy, as listed by the source, chain 1 of 2) above
Chain of ADI-26906 IgG1 LALE-L328A (L234A/L235E/L328A) (human) (light, as listed by the source, chain 2 of 2): as the sequence (light, as listed by the source, chain 2 of 2) above
Chain of ADI-26906 IgG1 LALE-K322A (L234A/L235E/K322A) (human) (heavy, as listed by the source, chain 1 of 2): as the sequence (heavy, as listed by the source, chain 1 of 2) above
Chain of ADI-26906 IgG1 LALE-K322A (L234A/L235E/K322A) (human) (light, as listed by the source, chain 2 of 2): as the sequence (light, as listed by the source, chain 2 of 2) above
Chain of ADI-26906 IgG1 LALE-A330S (L234A/L235E/A330S) (human) (heavy, as listed by the source, chain 1 of 2): as the sequence (heavy, as listed by the source, chain 1 of 2) above
Chain of ADI-26906 IgG1 LALE-A330S (L234A/L235E/A330S) (human) (light, as listed by the source, chain 2 of 2): as the sequence (light, as listed by the source, chain 2 of 2) above
Chain of ADI-26906 IgG1 LALA-P331S (L234A/L235A/P331S) (human) (heavy, as listed by the source, chain 1 of 2): as the sequence (heavy, as listed by the source, chain 1 of 2) above
Chain of ADI-26906 IgG1 LALA-P331S (L234A/L235A/P331S) (human) (light, as listed by the source, chain 2 of 2): as the sequence (light, as listed by the source, chain 2 of 2) above
Chain of ADI-26906 IgG1 LALE-P331S (L234A/L235E/P331S) (human) (heavy, as listed by the source, chain 1 of 2): as the sequence (heavy, as listed by the source, chain 1 of 2) above
Chain of ADI-26906 IgG1 LALE-P331S (L234A/L235E/P331S) (human) (light, as listed by the source, chain 2 of 2): as the sequence (light, as listed by the source, chain 2 of 2) above
Chain of ADI-26906 IgG1 LALA-H268Q (L234A/L235A/H268Q) (human) (heavy, as listed by the source, chain 1 of 2): as the sequence (heavy, as listed by the source, chain 1 of 2) above
Chain of ADI-26906 IgG1 LALA-H268Q (L234A/L235A/H268Q) (human) (light, as listed by the source, chain 2 of 2): as the sequence (light, as listed by the source, chain 2 of 2) above
Chain of ADI-26906 IgG1 LALE-L309A (L234A/L235E/L309A) (human) (heavy, as listed by the source, chain 1 of 2): as the sequence (heavy, as listed by the source, chain 1 of 2) above
Chain of ADI-26906 IgG1 LALE-L309A (L234A/L235E/L309A) (human) (light, as listed by the source, chain 2 of 2): as the sequence (light, as listed by the source, chain 2 of 2) above
Chain of ADI-26906 IgG1 LALA-K322A (L234A/L235A/K322A) (human) (heavy, as listed by the source, chain 1 of 2): as the sequence (heavy, as listed by the source, chain 1 of 2) above
Chain of ADI-26906 IgG1 LALA-K322A (L234A/L235A/K322A) (human) (light, as listed by the source, chain 2 of 2): as the sequence (light, as listed by the source, chain 2 of 2) above
Chain of ADI-26906 IgG1 LALA-L309A (L234A/L235A/L309A) (human) (heavy, as listed by the source, chain 1 of 2): as the sequence (heavy, as listed by the source, chain 1 of 2) above
Chain of ADI-26906 IgG1 LALA-L309A (L234A/L235A/L309A) (human) (light, as listed by the source, chain 2 of 2): as the sequence (light, as listed by the source, chain 2 of 2) above
Chain of ADI-26906 IgG1 LALA-A330S (L234A/L235A/A330S) (human) (heavy, as listed by the source, chain 1 of 2): as the sequence (heavy, as listed by the source, chain 1 of 2) above
Chain of ADI-26906 IgG1 LALA-A330S (L234A/L235A/A330S) (human) (light, as listed by the source, chain 2 of 2): as the sequence (light, as listed by the source, chain 2 of 2) above
Chain of ADI-26906 IgG1 LALE-H268Q (L234A/L235E/H268Q) (human) (heavy, as listed by the source, chain 1 of 2): as the sequence (heavy, as listed by the source, chain 1 of 2) above
Chain of ADI-26906 IgG1 LALE-H268Q (L234A/L235E/H268Q) (human) (light, as listed by the source, chain 2 of 2): as the sequence (light, as listed by the source, chain 2 of 2) above
Chain of ADI-26906 IgG1 L234A/L235E (human) (heavy, as listed by the source, chain 1 of 2): as the sequence (heavy, as listed by the source, chain 1 of 2) above
Chain of ADI-26906 IgG1 L234A/L235E (human) (light, as listed by the source, chain 2 of 2): as the sequence (light, as listed by the source, chain 2 of 2) above
Chain of ADI-26906 IgG1 LALA-Y296F (L234A/L235A/Y296F) (human) (heavy, as listed by the source, chain 1 of 2): as the sequence (heavy, as listed by the source, chain 1 of 2) above
Chain of ADI-26906 IgG1 LALA-Y296F (L234A/L235A/Y296F) (human) (light, as listed by the source, chain 2 of 2): as the sequence (light, as listed by the source, chain 2 of 2) above

As to “human FcγRI (CD64) (from UniProt P12314 16-374) (receptor)”, the response (RU) was found to be 19.1 RU in test [1]; 4.2 RU in [2]; 19.9 RU in test [3]; 2.6 RU in test [4]; 19.9 RU in test [5]; 1.8 RU in test [6]. For the same substance, the response (RU) is 3.5 RU in [7]; 21.6 RU in [8]; 14.3 RU in test [9]; 15.8 RU in test [10]; 17.7 RU in test [11]; 13.6 RU in [12]. The response (RU) came to 22.9 RU in [13]; 4.6 RU in test [14]; 4.3 RU in test [15]; 9.7 RU in test [16]; 23.5 RU in [17]; 25.2 RU in test [18]. For the same substance, the response (RU) in test [19] worked out at 3.3 RU; in test [20] it was 4.9 RU; in [21], 3.3 RU; in [22], 3.8 RU.
